Test results as given in patent publication US20220016130A1 (MAYO FOUNDATION FOR MEDICAL EDUCATION AND RESEARCH, published 2022).

Key:
BRD2 = biological target: T1, BRD2 (human, UniProt P25440 1-801); experiment: figure legend title; yeast two-hybrid and co-IP
T1 construct: One entry covers endogenous and FLAG-tagged full-length BRD2; also called FLAG-BRD2; Flag-BRD2
Experimental: (§1) A total of 2×10⁷ independent clones were screened by growth in deficient medium and X-gal staining. The positive clones were subsequently retested in fresh yeast cells, and the identities of prey were determined with interaction sequence tags (ISTs) obtained by DNA sequencing. The reading frame was verified.
(§2) To immunoprecipitate the ectopically expressed FLAG-tagged proteins, transfected cells were lysed 24 hours post-transfection in BC100 buffer. The whole-cell lysates were immunoprecipitated with the monoclonal anti-FLAG antibody-conjugated M2 agarose beads (Sigma-Aldrich) at 4° C. overnight. After three washes with lysis buffer, followed by two washes with BC100 buffer, the bound proteins were eluted using FLAG-Peptide (Sigma-Aldrich) prepared in BC100 for 3 hours at 4° C. The eluted protein sample was resolved by SDS-PAGE. To immunoprecipitate the endogenous proteins, cells were lysed with 1× cell lysis buffer (Cell Signaling Technology), and the lysate was centrifuged. The supernatant was precleared with protein A/G beads (Sigma-Aldrich) and incubated with the indicated antibody and protein A/G beads at 4° C. overnight. Beads were washed five times with lysis buffer and resuspended in sample buffer and analyzed by SDS-PAGE.

BRD3 = biological target: T2, BRD3 (human, UniProt Q15059 1-726); experiment: co-IP, ectopic in 293T and endogenous in LNCaP cells
T2 construct: One entry covers endogenous and FLAG-tagged full-length BRD3; also called FLAG-BRD3; Flag-BRD3
Experimental: as §2

[1] = biological target: T3, BRD3 SBC motif-deleted mutant (human, UniProt Q15059 1-726, limits assumed); experiment: co-IP (anti-FLAG) in 293T cells
T3 construct: The deleted residues are not numbered in the text; also called FLAG-BRD3 mutant; not shown: FLAG tag

[2] = biological target: T4, BRD2 SBC motif-deleted mutant (human, UniProt P25440 1-801, limits assumed); experiment: co-IP (anti-FLAG) in 293T cells
T4 construct: The deleted residues are not numbered in the text; also called FLAG-BRD2 mutant; not shown: FLAG tag

[3] = biological target: T5, BRD4 SBC motif-deleted mutant (human, UniProt O60885 1-1362, limits assumed); experiment: co-IP (anti-FLAG) in 293T cells
T5 construct: The deleted residues are not numbered in the text; also called FLAG-BRD4 mutant; not shown: FLAG tag

DEK = biological target: T6, DEK (human, UniProt P35659 2-375, limits assumed); experiment: yeast two-hybrid screen, human fetal brain cDNA library
T6 construct: Positive clone of the yeast two-hybrid screen
T6 sequence (looked up): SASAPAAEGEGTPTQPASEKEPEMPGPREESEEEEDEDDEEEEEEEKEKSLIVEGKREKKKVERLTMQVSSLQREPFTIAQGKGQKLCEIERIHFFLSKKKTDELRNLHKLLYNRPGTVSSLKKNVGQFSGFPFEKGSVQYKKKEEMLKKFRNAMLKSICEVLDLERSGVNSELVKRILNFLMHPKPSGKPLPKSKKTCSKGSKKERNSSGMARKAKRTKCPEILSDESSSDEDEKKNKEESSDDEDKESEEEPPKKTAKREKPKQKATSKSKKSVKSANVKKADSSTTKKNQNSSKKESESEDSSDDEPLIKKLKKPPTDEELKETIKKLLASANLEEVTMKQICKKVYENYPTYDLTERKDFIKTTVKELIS
Experimental: as §1

SRC-3 = biological target: T7, SRC-3 (human, UniProt Q9Y6Q9 2-1424, limits assumed); experiment: as above
T7 construct: Positive clone of the yeast two-hybrid screen
Experimental: as §1

B1: SPOP (speckle-type POZ polypeptide), wild-type (other, human, UniProt O43791 1-374, looked up)
chain: MSRVPSPPPPAEMSSGPVAESWCYTQIKVVKFSYMWTINNFSFCREEMGEVIKSSTFSSGANDKLKWCLRVNPKGLDEESKDYLSLYLLLVSCPKSEVRAKFKFSILNAKGEETKAMESQRAYRFVQGKDWGFKKFIRRDFLLDEANGLLPDDKLTLFCEVSVVQDSVNISGQNTMNMVKVPECRLADELGGLWENSRFTDCCLCVAGQEFQAHKAILAARSPVFSAMFEHEMEESKKNRVEINDVEPEVFKEMMCFIYTGKAPNLDKMADDLLAAADKYALERLKVMCEDALCSNLSVENAAEILILADLHSADQLKTQAVDFINYHASDVLETSGWKSMVVSHPHLVAEAYRSLASAQCPFLGPPRKRLKQS
notes: also called SPOP-WT; wild-type SPOP
binding result (BRD2): binds
binding result (BRD3): binds
binding result [1]: no binding
binding result [2]: no binding
binding result [3]: no binding
binding result (DEK): binds
binding result (SRC-3): binds
